According to IntAct's records for PubMed 18772386:

B1: Mpv17-like protein (Mus musculus), Q99MS3-1 (parent)
chain: MASWWRAFPQAARRYPWPTNVLLYAGLFSAGDALQQRLRGGPADWRQTRRVATLAVTFHGNFNYVWLRLLERALPGRAPRTVLAKVLCDQTVGGPIALSAFYVGMSVLQGKDDIFLDLKQKFWNTYKSGLMYWPFVQLTNFSLVPVHWRTAYTGLCAFLWATFLCFSQQSGDGTLQSIFIFLRRKEASDKSPEK
partner: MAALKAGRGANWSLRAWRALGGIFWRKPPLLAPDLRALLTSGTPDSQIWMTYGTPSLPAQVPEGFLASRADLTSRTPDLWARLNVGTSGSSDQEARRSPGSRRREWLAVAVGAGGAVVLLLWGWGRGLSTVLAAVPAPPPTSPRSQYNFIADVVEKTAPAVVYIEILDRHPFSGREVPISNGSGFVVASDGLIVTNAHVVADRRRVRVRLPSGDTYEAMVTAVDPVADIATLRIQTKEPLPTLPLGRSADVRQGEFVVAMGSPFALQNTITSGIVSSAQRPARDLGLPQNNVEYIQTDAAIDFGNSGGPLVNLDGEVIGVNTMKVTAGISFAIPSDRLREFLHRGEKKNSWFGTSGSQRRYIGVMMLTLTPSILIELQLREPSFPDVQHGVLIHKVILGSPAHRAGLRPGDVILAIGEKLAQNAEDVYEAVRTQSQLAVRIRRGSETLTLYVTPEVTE

Variants of: B1
Settings: with htra2_mouse Htra2, Q9JIY5
For D112A;I114A, the “effect of a mutation on the interaction” value was “decreasing interaction”.
